Assay results as given in publication PMC5897774, “Mitotic spindle association of TACC3 requires Aurora‐A‐dependent stabilization of a cryptic α‐helix” (The EMBO Journal, 2018).
Changes are numbered by the printed parent chain. Numbers in names are those of the source. Non-standard residues stand in square brackets, D forms with d. No end group written: not given here. pS = N[C@@H](COP(=O)(O)O)C(=O)O; FAM = fluorescein label

Key:
[1] = NMR chemical shift index analysis of TACC3 549–570 helicity; format: physicochemical; settings: 2 mM peptide, 20 mM Tris pH 7.2, 50 mM NaCl, 290 K, αH and αC secondary shifts
Description: We used NMR spectroscopy to determine the extent to which these α‐helices are present in TACC3 in the absence of binding partners in solution. Chemical shift index (CSI) plots were created for phosphorylated and unphosphorylated TACC3^CID following standard methods (Fig 7D and E; Wishart & Sykes, 1994). In addition to calculating α‐proton chemical shifts we also measured secondary chemical shifts for α‐carbons. After the type of amino acid, the main contribution to chemical shifts of α‐carbons is the ψ angle and thus the backbone conformation. Proximity of charges or aromatic side chains which can strongly affect proton chemical shifts has virtually no effect on the chemical shifts of α‐carbons which makes them very robust probes of backbone conformation. […] We concluded that phosphorylation of S558 increases the propensity for α‐helix formation in TACC3, and we examined the structure to identify the mechanism.
For analysis of TACC3 549–570 helicity, synthetic peptides were weighed in to give a sample concentration of 2 mM in 20 mM Tris pH 7.2 and 50 mM NaCl. Spectra were recorded at a temperature of 290 K on a Bruker Avance‐Neo 600 MHz spectrometer equipped with a prodigy cryoprobe. Peptides were assigned using 2D NOESY, TOCSY and 13C HSQC spectra recorded with watergate and gradient coherence selection, respectively. […]

[2] = target: WT Aurora‐A (of the FP assays) (human) (UniProt O14965)
Aurora‐A [3] = target: T1, Aurora‐A (Homo sapiens, UniProt O14965, C290A/C393A); set-up: method as in Burgess et al, 2015; settings: previous data, effect of F525A mutation; ref Burgess et al, 2015; read-out: K d of the interaction; cited from earlier work
T1 construct: pET30TEV Aurora‐A 122–403 C290A, C393A; made in house
T1 sequence (O14965 122-403 C290A/C393A): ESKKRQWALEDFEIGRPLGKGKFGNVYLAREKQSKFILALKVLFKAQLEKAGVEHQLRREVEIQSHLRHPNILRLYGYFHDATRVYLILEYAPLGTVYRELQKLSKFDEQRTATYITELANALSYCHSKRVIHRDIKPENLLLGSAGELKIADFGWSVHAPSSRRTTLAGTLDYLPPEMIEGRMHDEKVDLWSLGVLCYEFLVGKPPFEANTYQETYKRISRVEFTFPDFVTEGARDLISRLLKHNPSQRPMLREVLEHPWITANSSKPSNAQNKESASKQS

Aurora‐A [4] = target: T1, Aurora‐A; assay: Radioactive 32P‐ATP kinase assay, MBP substrate; format: biochemical; settings: 0.625 μM phosphorylated Aurora‐A, 5 μM TACC3^N‐ACID, 0.25 mg/ml MBP, 10 min, scintillation counting, duplicate
Experimental: Figure EV2 Biochemical and structural analysis of the Aurora‐A/TACC3 complex • FP assay between FAM‐TACC3 519–570 and Aurora‐A. Reactions were performed in triplicate. Error bars represent standard deviation. […] Error bars represent standard deviation. […] This peptide was based on the location of a sulphate ion, originating from the crystallization solution, at the interface of the Aurora‐A/TACC3 interface in the crystal structure, close to TACC3 T534. […] Myelin basic protein (MBP) was used as a generic kinase substrate. Incorporation of radioisotope was measured by scintillation counting. Reactions were performed in duplicate. Error bars represent standard error. Assays were compared to the WT TACC3^N‐ACIDH6c reaction by one‐way ANOVA with Dunnett's post hoc test. […], **P < 0.01 and ****P < 0.0001. • Multiple sequence alignment of TACC3 (above) and Aurora‐A (below) orthologs spanning the interaction binding interface. Key binding residues are boxed in red. The TACC3 phosphorylation sites, S552 and S558, are boxed in blue. The TACC3 LL motif required for binding to CHC is boxed in green. The TACC3 α‐helix produced on binding to CHC is identified by a black line. TEXT PRINTED IN THE PICTURE: (A) TACC3 519-570: 3.0 ± 0.2 μM | (B) WT: 20 ± 1 μM | (B) R526A: 49 ± 2 μM | (B) phospho-T534: 14 ± 1 μM
Radioactive ^32P‐ATP kinase assays were performed as described previously (Burgess et al, 2015). In brief, 0.625 μM Aurora‐A^M3KD WT or selected mutant was incubated with 0.25 mg/ml MBP alone and in the presence of 5 μM TACC3^N‐ACID WT or mutant for 10 min. Reactions were terminated by the addition of 2% (v/v) orthophosphoric acid. Samples were spotted onto P81 Whatman paper, washed extensively with 0.2% (v/v) orthophosphoric acid and incorporation of radioisotope measured by scintillation counting.

[5] = tested on: unphosphorylated Aurora‐A KD; assay: Autophosphorylation assay of unphosphorylated Aurora‐A KD (Western blot αphospho‐T288); format: biochemical, human; settings: unphosphorylated Aurora‐A 122–403, 1 h, room temperature
Description: (§1) Figure 2 TACC3 523–534 forms a docking interaction on the N‐lobe of Aurora‐A • Magnified view of the site 1 interaction. • Schematic showing the key features of the TACC3/Aurora‐A interface. • FP assays of binding between site 1 of TACC3 and Aurora‐A. The sequence of TACC3 present in the complex crystal structure is shown (top) with the residues of the site 1 FP peptide coloured orange and mutated residues identified by coloured circles corresponding to the curves shown in the FP assay (below). Data represent mean of three experiments ± SD. […] Data represent mean of three experiments ± SD. […] Reactions were analysed by SDS–PAGE (above) and Western blotting with an αphospho‐T288 Aurora‐A antibody (below). […] They are listed as printed.
(§2) Autophosphorylation assays were performed as for radioactive ^32P‐ATP reactions using Aurora‐A 122–403 co‐expressed with lambda phosphatase for 1 h at room temperature with His‐Aurora‐A D274N as a substrate in replace of MBP. Reactions were resolved by SDS–PAGE and subject to Western blotting using an α‐phospho‐T288 Aurora‐A antibody (CST 2914, 1:2,000) as per the manufacturer's recommendation.

[6] = tested on: Aurora‐A KD (substrate: Aurora‐A D274N); assay: Substrate phosphorylation of kinase‐dead Aurora‐A D274N by Aurora‐A KD (Western blot αphospho‐T288); format: biochemical, human; settings: Aurora‐A D274N as substrate, 1 h, room temperature
Description: as §1, §2

[7] = target: FAM‐WT TACC3 519–570 (human) (UniProt Q9Y6A5); assay: fluorescence polarisation; FAM‐TACC3 peptides with Aurora‐A; performed as in Richards et al, 2016; triplicate; one‐site total binding fit; Kd ± SE
[8] = target: FAM‐TACC3 522–536 phosphorylated on T534 (human) (UniProt Q9Y6A5); assay: as above
[9] = target: FAM‐TACC3 522–536 F525A (human) (UniProt Q9Y6A5); assay: as above
[10] = target: FAM‐TACC3 522–536 L532A (human) (UniProt Q9Y6A5); assay: as above
[11] = target: FAM‐TACC3 522–536 (WT site 1 peptide) (human) (UniProt Q9Y6A5); assay: as above
[12] = target: FAM‐TACC3 522–536 R526A (human) (UniProt Q9Y6A5); assay: as above
[13] = target: T2, CHC 1–574 (clathrin heavy chain propeller‐ankle fragment) (UniProt Q00610 1-574); assay: fluorescence polarisation; CHC proteins serially diluted in 20 mM HEPES–NaOH pH 7.5, 200 mM NaCl, 5 mM DTT; 50 nM FAM‐labelled TACC3 peptide; 30 min at room temperature; read at 25°C; settings: both partners purified
T2 construct: source: modified pGEX vector
T2 sequence (looked up): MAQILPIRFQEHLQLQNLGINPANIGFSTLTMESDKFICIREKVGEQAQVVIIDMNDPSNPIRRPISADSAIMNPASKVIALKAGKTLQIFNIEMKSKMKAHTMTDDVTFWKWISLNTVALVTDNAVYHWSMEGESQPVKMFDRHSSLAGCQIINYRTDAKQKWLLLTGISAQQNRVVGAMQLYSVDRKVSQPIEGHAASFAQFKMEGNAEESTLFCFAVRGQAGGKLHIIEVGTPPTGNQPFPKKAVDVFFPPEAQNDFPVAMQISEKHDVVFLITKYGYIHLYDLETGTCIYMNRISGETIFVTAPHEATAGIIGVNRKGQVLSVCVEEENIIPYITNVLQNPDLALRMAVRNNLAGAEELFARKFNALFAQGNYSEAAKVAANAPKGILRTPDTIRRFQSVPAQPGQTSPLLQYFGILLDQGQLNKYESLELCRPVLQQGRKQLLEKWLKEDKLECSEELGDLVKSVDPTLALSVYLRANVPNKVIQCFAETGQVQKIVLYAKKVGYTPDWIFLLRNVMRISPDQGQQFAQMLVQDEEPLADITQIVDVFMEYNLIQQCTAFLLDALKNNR

[14] = target: T3, CHC 1–574 (clathrin heavy chain propeller‐ankle fragment) (UniProt Q00610 1-574); assay: FP
T3 chain: T2 sequence (looked up)

[15] = target: T3, CHC 1–574 (clathrin heavy chain …); assay: FP
Aurora‐A 122–403 D274N = target: T4, Aurora‐A 122–403 D274N (human, UniProt O14965 122-403, D274N); assay: NMR titration; 13C/15N‐labelled TACC3 peptide (300 μM) alone and in complex with Aurora‐A 122–403 D274N; 20 mM KPO4 pH 7.0, 50 mM NaCl, 1 mM DTT; 298 K; chemical shift perturbation; settings: both partners purified
T4 construct: also called Aurora‐A^KD D274N; source: expressed and purified as described in previous work (Burgess et al, 2015)
T4 sequence (looked up): T1 sequence (O14965 122-403 C290A/C393A) with D153N, A169C, A272C

Molecule: FKESALRKQSLYLKFDPLLRDS [phosphorylated peptide, synthetic TACC3 549–570 peptide phosphorylated at S558, used for NMR]
- propensity for helix formation (CSI) [1]: much higher propensity

Molecule: FKESALRKQSLYLKFDPLLRDS [unphosphorylated peptide, synthetic TACC3 549–570 peptide, unphosphorylated, used for NMR]
- propensity for helix formation (CSI) [1]: tendency towards helix formation

Molecule: TACC3 519–563‐H6c (WT TACC3^N‐ACIDH6c) (from UniProt Q9Y6A5 519-563) (domain or fragment)
- 32P‐ATP kinase assay with MBP as substrate: stimulation of Aurora‐A activity [2]: 8 fold

Molecule: TACC3^N‐ACID F525A: TACC3^N-ACID with F525A mutation (ELKEESARDPAEVLGTGAEVDYLEQFGTSSFKESALRKQSLYLKF; not fully specified (C-terminus))
- Kd (Aurora‐A [3]): > 150 µM
- stimulation of Aurora‐A activity (Aurora‐A [4]): twofold–threefold
- Aurora‐A autophosphorylation on T288 [5]: reduced
- substrate phosphorylation on T288 (Aurora‐A D274N) [6]: reduced

Molecule: WT Aurora‐A (of the FP assays) (from UniProt O14965 122-403) (domain or fragment)
- Kd [7]: 3 µM
- Kd [8]: 14 µM
- Kd [9]: 2300 µM
- Kd [10]: 251 µM
- Kd [11]: 20 µM
- Kd [12]: 49 µM

B1: FAM‐non‐phosphorylated TACC3^CID (aa549–570) (peptide, UniProt Q9Y6A5 549-570, looked up)
peptide: {FAM}-FKESALRKQSLYLKFDPLLRDS
notes: TACC3, human, aa549–570 (TACC3^CID); also called unphosphorylated TACC3^CID peptide; S558; source: FAM‐labelled peptide (FAM‐TACC3 peptides: PPR, Cambridge; Almac, Craigavon)
- Kd [13]: 216 µM

Molecule: {FAM}-FKESALRKQ[pS]LYLKFDPAARDS [FAM‐phospho‐TACC3^CID L566A, L567A]
- Kd [14]: 345 µM

Molecule: {FAM}-FKESALAAQ[pS]LYLKFDPLLRDS [FAM‐phospho‐TACC3^CID R555A, K556A]
- Kd [15]: 209 µM

B2: ^13C^15N TACC3 519–540 (domain or fragment, human, UniProt Q9Y6A5 519-540, looked up)
chain: ELKEESFRDPAEVLGTGAEVDY
modifications: also: 13C, 15N labelled
notes: TACC3, human, aa519–540 (stop codon at residue 541 of pETM6T1 TACC3 519–563); source: expressed and purified as described for 13C15N‐TACC3 519–563 (Burgess et al, 2015)
- binding result (Aurora‐A 122–403 D274N): binds
